In PMC8291048:

Molecular target: PKM2, endogenous in T24 cells (human (endogenous in T24)) (UniProt P14618)
Assay: cross-linking; T24 cells (LV-DPYSL2, siDPYSL2 or negative control) lysed in 0.5% Triton X-100 sodium phosphate buffer pH 7.3; supernatant treated with 1% formaldehyde for 30 min; Western blot for PKM2 monomer, dimer and tetramer

PKM2, endogenous in T24 cells (from UniProt P14618 1-531) (enzyme; other documents disagree on this pair)
stoichiometry N: 2
